From patent publication US20250222127A1, “COMPOSITIONS AND METHODS FOR TREATING AND PREVENTING TRANSPLANT-ASSOCIATED INJURY” (MUSC Foundation For Research Development, priority 2016, published 2025)

Experiments:
allogeneic grafts = assay: Graft survival with B4-Crry and subtherapeutic tacrolimus; format: in vivo
Experimental: FIG. 6 depicts the results of example experiments depicting the survival curve from B4-Crry and subtherapeutic tacrolimus.
Experiments were conducted to examine the effects of B4-Crry in combination with sub-therapeutic tacrolimus (also known as FK506). Tacrolimus was given at 1 mg/kg/day. […] Thus, untreated allogeneic grafts reject at the same extent as the subtherapeutic Tacrolimus treated animals. B4-Crry was given at 0 and 24 hours post-transplant and Tacrolimus was given at 1 mg/kg/day for the duration of the experiment (until full rejection of the graft).

[1] = target: T1, annexin IV in post-ischemic mouse tissue (transplanted heart, brain-dead donor cardiac grafts, liver) (mouse, UniProt P97429 1-319, limits assumed); assay: perfusion of radiolabeled (125I) B4scFv-Crry through cardiac grafts of brain-dead or living donors, counted after flush
T1 construct: The target was whole grafts or tissue
T1 sequence (looked up): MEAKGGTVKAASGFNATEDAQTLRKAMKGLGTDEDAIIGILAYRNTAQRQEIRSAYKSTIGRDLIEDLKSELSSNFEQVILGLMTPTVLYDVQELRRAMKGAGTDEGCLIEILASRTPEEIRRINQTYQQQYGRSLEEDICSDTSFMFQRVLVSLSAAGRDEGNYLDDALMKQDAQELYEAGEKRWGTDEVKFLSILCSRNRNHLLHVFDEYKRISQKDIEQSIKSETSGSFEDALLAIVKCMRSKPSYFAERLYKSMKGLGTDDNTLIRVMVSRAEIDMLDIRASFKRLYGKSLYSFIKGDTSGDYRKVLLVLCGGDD
Experimental: FIG. 5 depicts the Binding of ¹²⁵I-B4-Crry after perfusion of grafts of BD (3 hours) or living donors. […] After 5 minutes, flush with 0.5 ml PBS, weigh and count.
In this experiment, B4scFv-Crry was administered to the donor hearts as a constituent of the UW preservation solution. […] The donor heart was then isolated and perfused with 0.5 mL ice cold UW or I¹²⁵-B4scFv-Crry via the proximal aortic arch.

annexin IV = target: T2, annexin IV (Homo sapiens, UniProt P09525); assay: Immunohistochemistry of human donor liver biopsies following Tx and 1 hour reperfusion; format: binding
T2 construct: Liver biopsies were obtained from human donor livers following Tx and 1 hour reperfusion; from tissue; host or cells: human donor liver biopsies after transplantation and 1 hour reperfusion
T2 sequence (P09525 2-319 limits assumed): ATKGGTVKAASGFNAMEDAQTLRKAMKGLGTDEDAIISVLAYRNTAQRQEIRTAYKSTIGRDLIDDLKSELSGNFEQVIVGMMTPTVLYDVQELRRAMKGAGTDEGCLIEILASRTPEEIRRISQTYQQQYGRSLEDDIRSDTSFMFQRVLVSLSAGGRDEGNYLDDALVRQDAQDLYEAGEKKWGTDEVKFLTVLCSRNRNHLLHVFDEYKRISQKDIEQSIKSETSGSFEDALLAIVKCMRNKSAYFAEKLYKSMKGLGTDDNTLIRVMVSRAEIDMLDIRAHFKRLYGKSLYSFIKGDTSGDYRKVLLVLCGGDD
Experimental: (§1) A therapeutic strategy that exploited this post-ischemia recognition system of natural antibodies was then developed and characterized. Based on neoepitope identification, an anti-annexin-IV single chain antibody (B4scFv) and an scFv linked to Crry (B4scFv-Crry) was constructed. […] Further, post-ischemic expression of the B4scFv neoepitope has been observed in multiple tissues/organs in both mouse and humans. […] Liver biopsies were obtained from human donor livers following Tx and 1 hour reperfusion. […] Similar data was obtained with normal and ischemic brain samples obtained from stroke patients. Finally, it is shown herein that a decrease in anti-annexin IV Abs in human serum 24 hours after cardiac Tx as compared to pre-Tx levels (note that levels were not decreased in 2 patients, which is likely due to transfusion volume) (Table 1). […] In certain aspects, there may be benefits of a neoepitope vs. C3d targeting approach for protection against IRI in a transplant. […] Second, the targeting vehicle itself contributes to therapeutic activity by blocking the binding of complement activating pathogenic IgM, which in turn reduces the binding of Clq and MBL, which can impact inflammation, endothelial activation, cell trafficking, and Ag-presentation. Third, it is likely less immunosuppressive since not all sites of infection and C3 deposition will be targeted with complement inhibition.

VC isografts = assay: Ischemia reperfusion injury of VC isografts, histology scoring of skin and muscle; format: in vivo; conditions: VC isografts in treated wild type mice
Experimental: Experiments were conducted to evaluate the effects of antibody-targeted complement inhibition on acute graft injury. VC isografts were transplanted into Rag −/− mice or wildtype mice. Mice were treated with PBS, B4 IgM mAb or B4-Crry. Isolated VCAs were stained and scored using a histology scoring system.

[2] = test system: post-ischemic human brain; assay: Binding to normal and ischemic brain samples from stroke patients
Experimental: as §1

transplanted heart = assay: Cardiac allograft transplant model (B4scFv targeting strategy); format: in vivo, mice
Experimental: as §1

[3] = allograft transplant model, recipients with full natural antibody repertoire

For C=CC[C@@H]1/C=C(\C)C[C@H](C)C[C@H](OC)[C@H]2O[C@@](O)(C(=O)C(=O)N3CCCC[C@H]3C(=O)O[C@H](/C(C)=C/[C@@H]3CC[C@@H](O)[C@H](OC)C3)[C@H](C)[C@@H](O)CC1=O)[C@H](C)C[C@@H]2OC [Tacrolimus, reference compound], the graft survival (allogeneic grafts; tacrolimus alone, 1 mg/kg/day (subtherapeutic)) was “does not prolong survival”.

B1: B4scFv-Crry (scFv)
chain: VKLQESGPELVKPGASVKISCKASGYTFTDYYMNWVKQSHGKSLEWIGDINPNNGGTSYNQKFKGKATLTVDKSSSTAYMELRSLTSEDSAVYYCARYDYAWYFDVWGQGTTVTVSSGGGGSGGGGSGGGGDVLMTQTPLSLPVSLGDQASISCRSSQSIVHSNGNTYLEWYLQKPGQSPKLLIYKVSNRFSGVPDRFSGSGSGTDFTLKISRVEAEDLGVYYCFQGSHVPYTFGGGTKLEIKRGGGGSGGGGSCPAPSQLPSAKPINLTDESMFPIGTYLLYECLPGYIKRQFSITCKQDSTWTSAEDKCIRKQCKTPSDPENGLVHVHTGIQFGSRINYTCNQGYRLIGSSSAVCVITDQSVDWDTEAPICEWIPCEIPPGIPNGDFFSSTREDFHYGMVVTYRCNTDARGKALFNLVGEPSLYCTSNDGEIGVWSGPPPQCIELNKCTPPPYVENAVMLSENRSLFSLRDIVEFRCHPGFIMKGASSVHCQSLNKWEPELPSCFKGVICRLPQEMSGFQKGLGMKKEYYYGENVTLECEDGYTLEGSSQSQCQSDGSWNPLLAKCVSRSIIEGRHHHHHH
modifications: 125I radiolabel in the graft perfusion experiment (position not given)
notes: also called B4-Crry; B4Crry
For B1, the “fold higher binding in BD vs. living donor grafts” value [1] was 7 fold.

B2: B4scFv-Crry: anti-annexin-IV single chain antibody (B4scFv) linked to Crry; B4Crry amino acid sequence SEQ ID NO: 62 (protein)
chain: MSVPTQVLGLLLLWLTDARCVKLQESGPELVKPGASVKISCKASGYTFTDYYMNWVKQSHGKSLEWIGDINPNNGGTSYNQKFKGKATLTVDKSSSTAYMELRSLTSEDSAVYYCARYDYAWYFDVWGQGTTVTVSSGGGGSGGGGSGGGGDVLMTQTPLSLPVSLGDQASISCRSSQSIVHSNGNTYLEWYLQKPGQSPKLLIYKVSNRFSGVPDRFSGSGSGTDFTLKISRVEAEDLGVYYCFQGSHVPYTFGGGTKLEIKRGGGGSGGGGSCPAPSQLPSAKPINLTDESMFPIGTYLLYECLPGYIKRQFSITCKQDSTWTSAEDKCIRKQCKTPSDPENGLVHVHTGIQFGSRINYTCNQGYRLIGSSSAVCVITDQSVDWDTEAPICEWIPCEIPPGIPNGDFFSSTREDFHYGMVVTYRCNTDARGKALFNLVGEPSLYCTSNDGEIGVWSGPPPQCIELNKCTPPPYVENAVMLSENRSLFSLRDIVEFRCHPGFIMKGASSVHCQSLNKWEPELPSCFKGVICRLPQEMSGFQKGLGMKKEYYYGENVTLECEDGYTLEGSSQSQCQSDGSWNPLLAKCVSRSIIEGRHHHHHH
modifications: B4Crry amino acid sequence
In the case of B2, the graft survival (allogeneic grafts; B4-Crry at 0 and 24 hours post-transplant combined with tacrolimus 1 mg/kg/day, vs. tacrolimus alone) is reported as “significantly prolongs graft survival”, the “staining of biopsies obtained post-Tx” value (annexin IV; human liver biopsies post-Tx) is reported as “stained biopsies obtained post-Tx” and the “staining of samples from normal biopsies” value (annexin IV; normal human liver biopsies) is reported as “not samples from normal biopsies”. For the same molecule, the “binding to post-ischemic human liver” value (annexin IV; post-ischemic human liver) was “directly bind”, the “Ischemia reperfusion injury (skin and muscle histopathological score)” value (VC isografts) was “protection from IRI” and the “binding to post-ischemic human brain” value [2] was “directly bind”. For the same molecule, the “cardiac graft inflammation and injury” value (transplanted heart; allograft transplant model) was “significantly reduced”, the “complement activation in graft” value (transplanted heart; [3]) was “blocked” and the “graft IgM binding” value (transplanted heart; [3]) was “blocked”. The “targeting to the transplanted heart” value (transplanted heart; cardiac Tx model) was “specifically targeted to the transplanted heart” and the immunity to infection (transplanted heart; compared with complement deficiency) was “did not affect immunity to infection”.
